Experimental data from the supplement of paper PMC10724198.
± gives the standard deviation of the averaged measurements.

System: Saccharomyces cerevisiae
Assay: protein stability index of tFT-peptide fusion (C-terminal peptide) (PSI (0-1 scale)); higher = more stable (slower turnover)
Conditions: genetic background: wild type; temperature: 30 C
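Note: PSI is a weighted mean of sequencing reads over stability bins, variants kept only with over 10 reads, mCherry proximal and sfGFP distal, peptide attached via GGGS linker.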

Row | Sequence | protein stability index
1 | MTIMPSPLGVVH | 0.514 ± 0.055
2 | RSSIGNLCCRLL | 0.6884 ± 0.0034
3 | GRLHHYGRCAQG | 0.664 ± 0.02
4 | LFKRTWRVEGFG | 0.705 ± 0.094
5 | LASSGQSWLVVF | 0.563 ± 0.011
6 | LLRWEPNYTENL | 0.796 ± 0.028
7 | SHLGTITPSSLL | 0.662 ± 0.082
8 | IDKVTNTGSRKV | 0.582 ± 0.05
9 | PPSSPCLRPSPP | 0.683 ± 0.037
10 | GQFASFQSTRPP | 0.754 ± 0.077
11 | ECAGVVRAKLPA | 0.718 ± 0.05
12 | GTGRRRGWGVMG | 0.664 ± 0.026
13 | LASGSVSCFWSG | 0.71 ± 0.021
14 | RGWAGGRQGCGG | 0.746 ± 0.055
15 | PPPQSPPLLLVL | 0.548 ± 0.021
16 | DTDRRWLGTFLV | 0.534 ± 0.023
17 | ERQSMNKRERNP | 0.683 ± 0.023
18 | KKKNKKNKKKAE | 0.6915 ± 0.0047
19 | SLPPPLPRRPPP | 0.729 ± 0.13
20 | FLLVHIFSLFCL | 0.547 ± 0.013
21 | IKTKREKNGVSS | 0.722 ± 0.016
22 | FLVPTYISPFSF | 0.65 ± 0.027
23 | LFCVARARLGCW | 0.768 ± 0.026
24 | PPPPLPPPTLPT | 0.726 ± 0.11
25 | PSRSATRPFPLS | 0.707 ± 0.071
26 | EWRWPTELNRKG | 0.75 ± 0.051

Row | Sequence | protein stability index
27 | HCFASLITSIVH | 0.535 ± 0.025
28 | LRRTKWRTLQAP | 0.701 ± 0.048
29 | KIKNKKNKCKKK | 0.751 ± 0.14
30 | SGGGGVLGWRGG | 0.682 ± 0.022
31 | GFLSSSKSCRCH | 0.632 ± 0.059
32 | SVEKYDGGKGVV | 0.69 ± 0.0095
33 | SPGPPLLLPPPL | 0.688 ± 0.085
34 | LTLGAIRLLLRC | 0.496 ± 0.037
35 | EACVAAMTPKSL | 0.657 ± 0.0083
36 | RSGAAREVSGGA | 0.7546 ± 0.0052
37 | PPLPLPTLPCRP | 0.644 ± 0.035
38 | VTNVTSETRVLT | 0.6816 ± 0.0013
39 | PLPLPLLPPPLP | 0.764 ± 0.11
40 | PSDLFGIQQSLL | 0.764 ± 0.018
41 | RPMKGLSMGSCA | 0.66 ± 0.011
42 | YSGRGLISNHGY | 0.723 ± 0.043
43 | PDYPLSCLLFFP | 0.643 ± 0.011
44 | TKQKKIEDEEII | 0.6314 ± 0.0017
45 | ICITIRQTRENK | 0.668 ± 0.027
46 | NELRTFLGDRDI | 0.675 ± 0.043
47 | KKVDLEDQRKER | 0.745 ± 0.008
48 | LANGACLLRLNF | 0.54 ± 0.017
49 | GQGKWGGGGDER | 0.68276 ± 0.0003
50 | VNVSLFWFGTYL | 0.61 ± 0.054
51 | TQVGLGSFYSLG | 0.697 ± 0.079
52 | PPPPVPPPPSPL | 0.6974 ± 0.0036

Row | Sequence | protein stability index
53 | GSKISIKDKAQV | 0.685 ± 0.07
54 | STRPDLLLLAES | 0.6 ± 0.055
55 | MGKSLCLFTQPI | 0.668 ± 0.09
56 | VMAVARIEVKMR | 0.587 ± 0.024
57 | EKTKEHRNDSQR | 0.695 ± 0.014
58 | QKDTGKETTYRA | 0.681 ± 0.037
59 | KKNLHEQIGEAI | 0.687 ± 0.051
60 | AGSSIPLPASRA | 0.705 ± 0.026
61 | GGACGRRSEDCQ | 0.633 ± 0.087
62 | RLPLSSPLRFSL | 0.712 ± 0.06
63 | MIASRVSYDMSY | 0.608 ± 0.043
64 | SHSRRRTPSVTP | 0.713 ± 0.083
65 | HFVAPLSPRGSL | 0.633 ± 0.038
66 | PPPHPPTPLPPT | 0.701 ± 0.018
67 | VGRARRKGGGVG | 0.6384 ± 0.0024
68 | SGGWLAACYAVY | 0.668 ± 0.032
69 | EIKNKENKLKKT | 0.684 ± 0.03
70 | WGLGLLGGCWGV | 0.679 ± 0.09
71 | GLSIVGAALHSA | 0.663 ± 0.025
72 | DTRRHSFCSGTG | 0.697 ± 0.029
73 | FVGVGLVRVVGW | 0.618 ± 0.018
74 | SWSVSVNMVGQS | 0.6829 ± 0.0042
75 | WWGRWPGLAGGR | 0.716 ± 0.068
76 | KKKKKKKETKKR | 0.661 ± 0.047
77 | RYRSRHHSTYVL | 0.635 ± 0.26
78 | PLHDGRFANDSF | 0.674 ± 0.043

Row | Sequence | protein stability index
79 | SGGWGGGDCVGA | 0.69 ± 0.014
80 | DPCDVVQHPSAQ | 0.657 ± 0.11
81 | RSSARPQNRPLP | 0.733 ± 0.035
82 | HHSLLLPPPPPP | 0.673 ± 0.019
83 | PPPLPPSIPLPL | 0.743 ± 0.031
84 | SLDFRSARFSLG | 0.65 ± 0.014
85 | PPSSPALPSDTP | 0.694 ± 0.013
86 | RSSPPSPPLLSP | 0.611 ± 0.023
87 | PPPHSPSPTPHW | 0.713 ± 0.016
88 | VGGAVVWVGLVR | 0.55 ± 0.031
89 | KQFGIHSRVFLM | 0.547 ± 0.021
90 | RTVPCCVAENKF | 0.672 ± 0.012
91 | VRARSTSCGIWC | 0.692 ± 0.045
92 | IAMVTLPRLNKS | 0.7179 ± 0.0071
93 | LGGHLFPLGPRR | 0.664 ± 0.007
94 | VEVGAWMVGCSE | 0.6113 ± 0.0012
95 | AKKKKKTKRRKK | 0.692 ± 0.07
96 | CFVIFFSSPGVC | 0.583 ± 0.03
97 | YLLLVPDTRTLL | 0.683 ± 0.0079
98 | PTLLQPPPPSYP | 0.704 ± 0.048
99 | MKTNFLDVKILM | 0.7186 ± 0.0059
100 | PPVLQPLLALAL | 0.535 ± 0.015
101 | LFHPPVCPVFLD | 0.758 ± 0.037
102 | SRFPPDTFFSFL | 0.802 ± 0.14
103 | PTPPHPTSPPPP | 0.693 ± 0.01
104 | LPVLCSRVFVSS | 0.517 ± 0.023

Row | Sequence | protein stability index
105 | SSAALSPPPPRP | 0.724 ± 0.027
106 | AFSASLAGSGRS | 0.736 ± 0.046
107 | LDSGQALLSIPI | 0.643 ± 0.12
108 | RRNISRQNKKKR | 0.76 ± 0.11
109 | TLRRYSFTKKNL | 0.737 ± 0.069
110 | PPATTPICSTPS | 0.681 ± 0.017
111 | VKLEEKNTINKV | 0.668 ± 0.1
112 | RLLMIFTSKMFM | 0.6623 ± 0.0019
113 | YILLGEFAGVFP | 0.689 ± 0.17
114 | VYASMFRAAWPF | 0.746 ± 0.076
115 | GSVRLLDNLQRL | 0.663 ± 0.057
116 | PSPPPAIFPFVS | 0.71 ± 0.059
117 | PPATPTNPPVSP | 0.687 ± 0.027
118 | PYSFDTNFVLIS | 0.643 ± 0.1
119 | PPHHPPPASRSQ | 0.653 ± 0.068
120 | FCRYSRAWKDFV | 0.737 ± 0.087
121 | SLPSLLFLISLP | 0.543 ± 0.054
122 | QVFTLFPASYPL | 0.688 ± 0.057
123 | NALGRPSAFILT | 0.695 ± 0.057
124 | PLPTHISPPLPS | 0.6893 ± 0.006
125 | AVPSAPPNPDAS | 0.704 ± 0.046
126 | SAHPFKSCPIGR | 0.682 ± 0.0094
127 | PPPPPLRPPRSP | 0.767 ± 0.013
128 | PYAHTKGSLGML | 0.6352 ± 0.0013
129 | LGVSYAPLPFLS | 0.65 ± 0.03
130 | SKNQEDEYTIHE | 0.7 ± 0.024

Row | Sequence | protein stability index
131 | WWEVSFRVGAVR | 0.648 ± 0.025
132 | LPPFFPLLSPPF | 0.664 ± 0.031
133 | PPPPPSAPAPLH | 0.6963 ± 0.0021
134 | GGGRCSGDGDRG | 0.708 ± 0.063
135 | PPAPSPRPPPPP | 0.708 ± 0.067
136 | EGGERGSKIVDT | 0.593 ± 0.029
137 | TNARDPPGPTPH | 0.586 ± 0.06
138 | PPSLLLCPLFTS | 0.602 ± 0.075
139 | LIPCFSPLPSPF | 0.721 ± 0.018
140 | FSRSGIRLLGVA | 0.59 ± 0.021
141 | ISPSASTSRPFQ | 0.697 ± 0.11
142 | GDRAKTKQRESN | 0.671 ± 0.01
143 | EKQKIIRSGCES | 0.746 ± 0.16
144 | IPGSPIATARPG | 0.665 ± 0.025
145 | SFLIADLPSTPP | 0.763 ± 0.13
146 | PPTLPVPSPSPL | 0.822 ± 0.25
147 | RPLWVDGPHPSR | 0.666 ± 0.1
148 | VELFSYGHHCRV | 0.658 ± 0.011
149 | SQSFFDGVLVRV | 0.673 ± 0.059
150 | PSPPPRRPPAPP | 0.666 ± 0.017
151 | MGHKDDRGFADR | 0.657 ± 0.013
152 | FFFGPPPCRSFF | 0.731 ± 0.019
153 | SPSTSIPPLPAS | 0.73 ± 0.016
154 | PPHAAPPHICWQ | 0.727 ± 0.049
155 | VGGAVGAGGGGG | 0.649 ± 0.032
156 | LAGRPSTTRAFR | 0.59 ± 0.027

Row | Sequence | protein stability index
157 | PRPGPPPPPPSP | 0.713 ± 0.035
158 | SYGTIGYLATSF | 0.687 ± 0.075
159 | RGVGWVLEVLLG | 0.518 ± 0.0087
160 | NKKKGYRKKQNH | 0.567 ± 0.032
161 | APPPAYCPPPPP | 0.713 ± 0.022
162 | LTGCFRSSRRCC | 0.665 ± 0.02
163 | PTPPPAFGFPPP | 0.688 ± 0.16
164 | HVLRCRASLLFL | 0.6305 ± 0.0031
165 | PLPLPVSPRPPP | 0.6807 ± 0.0063
166 | RRAKMHSRRSLA | 0.648 ± 0.053
167 | PWCTPVKRGTSM | 0.763 ± 0.056
168 | FPAMVRVDTCGV | 0.673 ± 0.059
169 | SPQPPHSPLSAR | 0.653 ± 0.024
170 | IKGSLILRGRGE | 0.657 ± 0.025
171 | SWKEAIVAISGS | 0.612 ± 0.058
172 | LIDKPNNGVWIS | 0.587 ± 0.042
173 | HREQSTILDLKE | 0.715 ± 0.036
174 | FFVAFGSWFGFL | 0.677 ± 0.099
175 | PPLPPRSPSAPL | 0.695 ± 0.034
176 | VGGFVRGRVWCS | 0.696 ± 0.012
177 | AVTSLGGGIILN | 0.659 ± 0.045
178 | VIRQVKFDRKCS | 0.681 ± 0.068
179 | ELGGRGPGGWVG | 0.7149 ± 0.0041
180 | GVRYFKWGCTHG | 0.684 ± 0.029
181 | PPLAPPHPCPPP | 0.698 ± 0.018
182 | GFVPRSFNTLTS | 0.664 ± 0.053

Row | Sequence | protein stability index
183 | SPRSPPSTSSPQ | 0.6802 ± 0.001
184 | ISSNMIVMAICG | 0.6 ± 0.03
185 | FKPKAGCSNFAK | 0.696 ± 0.025
186 | KLNDTLKDRQNK | 0.67 ± 0.037
187 | QLETFGRDLTIP | 0.716 ± 0.11
188 | PAGVDQPYIPGE | 0.6002 ± 0.0054
189 | SPTPHPPPSPPL | 0.728 ± 0.023
190 | FRRGGVERGVEG | 0.723 ± 0.026
191 | SPRRWVSGHPRG | 0.711 ± 0.042
192 | LPPPRPTRSPTH | 0.617 ± 0.034
193 | LDEFFIKTSANM | 0.652 ± 0.088
194 | FLSSFVSNHVFW | 0.7914 ± 0.0032
195 | VSRGGMSGIVCL | 0.773 ± 0.11
196 | SGSSRLRTSPTG | 0.814 ± 0.056
197 | LICLTIHNEGSK | 0.583 ± 0.017
198 | IVRTMLKLFVDV | 0.5827 ± 0.0037
199 | PPFLPPSPPAPP | 0.691 ± 0.031
200 | PFAFLSPLIPPP | 0.749 ± 0.013
201 | RPSARSLVSPSP | 0.716 ± 0.025
202 | QSWVNIGCRGAW | 0.72 ± 0.012
